From article PMC6254359

B1: Trim5α from Rhesus macaque, Bbox coiled-coil regions, residues 88–296 with the mutation [Rhesus macaque] / LC3C [not stated] (parent)
chain 1: PEEGQKVDHCARHGEKLLLFCQEDSKVICWLCKDSQEHRGHHTFLMEEVAQEYHVKLQTALEMLRQKQQEAEKLEADIREEKASWKIQIDYDKTNVSADFEQLREILDWEESNELQNLEKEEEDILKSLTKSETEMVQQTQYMRELISELEHRLQGSMMDLLQGVDGIIKRIENMTLKKPKTFHKNQRRVFRAPDLKGMLDMFRELTDA
chain 2: MPPPQKIPSVRPFKQRKSLAIRQEEVAGIRAKFPNKIPVVVERYPRETFLPPLDKTKFLVPQELTMTQFLSIIRSRMVLRATEAFYLLVNNKSLVSMSATMAEIYRDYKDEDGFVYMTYASQETFG
B2: Trim5α from Rhesus macaque, Bbox coiled-coil regions, residues 88–296 with the mutation [Rhesus macaque] / GABARAPL1 [not stated] (parent)
chain 1: B1 chain 1
chain 2: not shown
B3: Trim5α from Rhesus macaque, Bbox coiled-coil regions, residues 88–296 with the mutation [Rhesus macaque] / GABARAP [not stated] (parent)
chain 1: B1 chain 1
chain 2: MKFVYKEEHPFEKRRSEGEKIRKKYPDRVPVIVEKAPKARIGDLDKKKYLVPSDLTVGQFYFLIRKRIHLRAEDALFFFVNNVIPPTSATMGQLYQEHHEEDFFLYIAYSDESVYGL

Variants of: B1
Test: SV-AUC c(s) analysis
Conditions: with LC3C; 20 μm equimolar concentration; read off a plot

With chain 1 W109A the screen value was 2.7 S.

Variants of: B2
Test: SV-AUC c(s) analysis
Conditions: with GABARAPL1; 20 μm equimolar concentration; read off a plot

In the case of chain 1 W109A, the screen value is reported as 2.8 S.

Same assay, conditions: with autophagy-related protein LC3 B (LC3B), 20 μm equimolar concentration, read off a plot

Work on chain 1 W109A yielded a screen value of 2.7 S.

Same assay, conditions: with GABARAPL1; equal concentration of 20 μm; read off a plot

Compared with chain 1 E105A, chain 1 E105K is lower in screen value: 2.9 S for the first, 2.8 S for the second.

Compared with chain 1 E110A, chain 1 E111K is lower in screen value: 3 S for the first, 2.9 S for the second.

Compared with chain 1 E119A, chain 1 E119K is lower in screen value: 3 S for the first, 2.9 S for the second.

Compared with chain 1 Q102A, chain 1 Q116A is lower in screen value: 3.1 S for the first, 3 S for the second.

For chain 1 S112A, the screen value was 3 S.

Same assay, conditions: with autophagy-related protein LC3 B (LC3B), equal concentration of 20 μm, read off a plot

Compared with chain 1 E105A, chain 1 E105K is lower in screen value: 2.8 S for the first, 2.7 S for the second.

chain 1 E110A and chain 1 E111K are the same in screen value: 2.8 S for the first, 2.8 S for the second.

chain 1 E119A and chain 1 E119K are the same in screen value: 2.8 S for the first, 2.8 S for the second.

Compared with chain 1 Q102A, chain 1 Q116A is higher in screen value: 2.9 S for the first, 3 S for the second.

Work on chain 1 S112A yielded a screen value of 3 S.

Variants of: B3
Test: SV-AUC c(s) analysis
Conditions: with GABARAP; 20 μm equimolar concentration; read off a plot

With chain 1 W109A the screen value was 2.8 S.
